Key:
[1] = target: Human IL-2 R alpha protein, His Tag (Acro, ILA-H52H9) (human) (UniProt P01589); experiment: BLI; conditions: ligand
[2] = target: Human IL-2 R beta protein, His-Tag (Acro, CD2-H5221) (human) (UniProt P14784); experiment: BLI; conditions: ligand
Sequence of UniProt P14784 (P14784 27-239): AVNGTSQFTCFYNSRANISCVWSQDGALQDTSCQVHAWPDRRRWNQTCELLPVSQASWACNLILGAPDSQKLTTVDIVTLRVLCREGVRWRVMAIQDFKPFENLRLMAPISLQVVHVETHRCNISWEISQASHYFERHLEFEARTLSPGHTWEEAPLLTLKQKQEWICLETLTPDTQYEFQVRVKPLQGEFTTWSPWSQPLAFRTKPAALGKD

Sequence of UniProt P01589 (P01589 22-213): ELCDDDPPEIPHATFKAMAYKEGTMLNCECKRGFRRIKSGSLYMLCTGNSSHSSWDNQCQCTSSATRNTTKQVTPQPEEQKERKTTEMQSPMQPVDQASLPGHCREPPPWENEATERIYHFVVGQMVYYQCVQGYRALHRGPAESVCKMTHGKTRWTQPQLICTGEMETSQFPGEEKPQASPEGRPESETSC

Kd [1]: 1.3 nM
Kd [2]: 91.7 nM
Substance: Proleukin (Novartis, hIL-2) (from UniProt P60568 22-153)

— US20230104217A1
